Results on 1 molecule are retold here after patent CN1903878A (UNIV FUDAN, dated 2007).

In general, Kd refers to the concentration at which binding is half-saturated. The term koff denotes the rate constant with which the complex falls apart. For orientation: kon means a measure of how fast the partners come together.

The experiment concerns the target T1, 重组冠状病毒S蛋白 (SARS冠状病毒棘突蛋白部分片段, 氨基酸位点257~573) (SARS冠状病毒, UniProt P59594 257-573).
T1 construct: range 257-573; also called 重组S蛋白; 重组抗原S蛋白
Nature of the experiment: SPR (Biacore 3000), recombinant S protein immobilised, Fab at 2.5-0.3125 μg/ml.

B1: 抗冠状病毒人源性基因工程抗体Fab片段AS3-3 (Fab, V domains shown)
VH: EVKLVESGGGVVQPGRSLRLSCAASGFRFSTYAIHWVRQAPGKGLEWVARISHDGSQTHYADSVQGRFGVSRDNSNYTAYVQLNSLRPDDTAVYFCARAYSSTPDYGMDVWGQGTAVTVSS
VL: EIVMTQSPLSPVTLGQPASISCKSSQSLVDTNGNTYLIWFHQRPGQSPRRLIYQVSKRDSGVPDRFSGSGTDFTLKISRVEAEDVGVYFCMQGTYRPPTLGQGTKVEIKR
notes: also called 阳性克隆AS3-3; 抗SARS病毒人源性抗体IgG Fab片段
As to B1, the Ka was 5.05e+07 M⁻¹, the equilibrium dissociation constant (Kd) was 19.8 nM, the koff was 0.00306 s⁻¹ and the kon amounted to 154000 M⁻¹ s⁻¹.
